This series in a line: yeast display, Sf9 membrane polyspecificity reagent, FACS + sequencing; frameworks hold sequencing errors. The gist of the method:
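Nanobodies from a synthetic yeast display library (Saccharomyces cerevisiae BJ5465), induced 36–48 hours with galactose, were stained 1 hour at 4 °C with 10% biotinylated, detergent-solubilized Sf9 membrane reagent, enriched on streptavidin microbeads, then FACS-sorted. Anti-HA (expression) and streptavidin (reagent binding) fluorescence set low and high (top ~1%) gates. Polyreactivity labels come from the gate of origin. Genes were colony-PCR amplified, MiSeq 2 × 250 sequenced and filtered by CDR length.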
In the case of “QVHHVESAGGLVQAGGSLRLICAASGSTFDYYAMGWYRQEPGKERELLAGIDSAGSTNYADSVKGRFTISRDNAKNTVYLQMNSVKTGTYRGLYCNVGKTITTYAFPTFDYWGQGSQVTVSS”, the “polyreactivity (PSR sort gate)” value was “low polyreactivity”.

Regarding “QVQLVESGGGLVQAGGSLRLSCAASGSIFYLNAMGWYRQAPGKERELVAAITNGGSTYADSVKGRFTISRDNAKNTVYLQMNSLKPEDTAGYYCATRSWELGDYWGQGTQVTVSS”, the “polyreactivity (PSR sort gate)” value was “low polyreactivity”.

For “QVQLVESGGGLVQEGGSLRLSCAASGSTFRHNAMGRYRQAPGKERELVAVITDGASTNYADSVKGRFTISRDNAKNTVYLQMNSLKPEDTAVYYCAAYHRGYYTGREYYYWGQGTQVTVSS”, the “polyreactivity (PSR sort gate)” value is on record as “low polyreactivity”.

On to “QVQLKDSGCGLVQAGGSLRLSCAASGTISYRYRMGWYREAPRKELELVAGISFGSITYYADSVKGRFTISRDNAKNTVYLQMNSLKPVDIAVYYCAVYQKSYRFFPYWGQGTQVTVSS”, for which the “polyreactivity (PSR sort gate)” value is “high polyreactivity”.

Take “QLQLVESGGGLVQAGGSLRLSCAASGSTYATYTMGWYRQAPGKERELVAAISVSGSRTYYADSVKGRFTISRDNAKNTVYLQMNSLKPEDTAVYYCNADPPVKLYLYDYWGQGTQVTVSS”: the “polyreactivity (PSR sort gate)” value is “high polyreactivity”.

With “QVQLVESGGALVQAGGSLRLSCAASGYIFDRYAMGWYRQAPGKEWELVAAISGRGGSTYYADSVKGRFTISRDNAKNTVYLQMNSLKPEDTAVYYCAAARSWHLYHRYDYWGQGTQVTVSS”, the “polyreactivity (PSR sort gate)” value was “high polyreactivity”.

Take “QVQLVESGGGLVQAGGSLRLTCAASGFTFGEYAMGWYRQAPGKERELVAVITSGGGRTYYADSVKGRFTISRDNAKNNVYLEMNSLNPEDTAAYYCAAQPKPQLERKDDYWGQGTQVTVSS”: the “polyreactivity (PSR sort gate)” value was “high polyreactivity”.

Consider “QVQLVESGGGLVQAGGSLRLSCAASGYTFAIYAMGWYRQAPGKERELVAAITWNGGSTYYADSVKGRFTISRDNAKNTVFLQMNSLKPEDTAVYYCAADYWSGGYDYWGQGTQVTVSS”, for which the “polyreactivity (PSR sort gate)” value is “low polyreactivity”.

For “QVQLVESGGGLVQAGGSLRLSCAASGSTLGVYVMGWYRQAPGKERELVAAISRNGGSTYYADSVKARFTISRDNAKNTVYLQMNSLKPEDTAVYYCAARTVGRKACFDYWGQGTQVTVSS”, the “polyreactivity (PSR sort gate)” value was “high polyreactivity”.

Take “QVQLVESGAGIVQAGGSLRLSCAASGSIFYYNAMGVYRQAPGKERELVAAITSADSTNYADSVKGRFTISRDNAKNTVYLQMNSLKPEDTAVYFCAADFLAALTYYRTYDYWGQGTQVTVSS”: the “polyreactivity (PSR sort gate)” value was “low polyreactivity”.

With “QVQLVESGGGLVQAGGSLRLSCAASGLTFYPNAMGWYRQAPGKERELVAGITSGGSTYYADSVKGRFTISRDNAKNTVYLQMNSLKPEDTAVYYCAAYYNFGDYEYDYWGQGTQVTVSS”, the “polyreactivity (PSR sort gate)” value is on record as “low polyreactivity”.

As for “QVQLVESGGGLVQAGGSLRLSCAASGFTFYRYAMGWYRQAPGKERELVAAITSGGDTYYADSVKGRFTISRDNAKNTVYLQMNSLKPEDTAVYYCAAAPRYGYGLASDSIFDYWGQGTQVTVSS”, the “polyreactivity (PSR sort gate)” value was “high polyreactivity”.

For “QVQLVESGGGLVQAGGSLRLSCAASGRIFYKYAMGWYRQAPGKERELVAVINRGGTTYYADSVKGRFTISRDNGKNTVYLQMNSLKPDDTAVYYCNTVADYRRFGYWGQGTQVTVSS”, the “polyreactivity (PSR sort gate)” value was “high polyreactivity”.

Turning to “QVQLVESGVGLVQAGGSHRFICAASGIIFYSYAMGWYRQAPGKEREFVAAITNSDGSTYYADTVKRRFTISRDNAKNTVYLQMNSLKPVDTAVYMYYWGQGTQVTVSS”, the “polyreactivity (PSR sort gate)” value is reported as “low polyreactivity”.

As for “QVQLVESGGGLDQAGGSLRLSCAASGFTFRYYAMGWYRQAPRKERELVAAIRRGGTTNYADSVKGRFTISRDNAKNTVYLQMNSLKPEDTAVYYCANYRYGYDYWGQGTQVTVSS”, the “polyreactivity (PSR sort gate)” value is “high polyreactivity”.

On to “QVQLVESGGGLVQAGGSLRLSCAASGGTFLAYAMGWYRQAPGKERELLATITSGGSTNYADSVKGRFTISRDNAKNTVYVQMNSLKPEDTAVYYCAASGRDFIAESPYDYWGQGTQVTVSS”, for which the “polyreactivity (PSR sort gate)” value is “low polyreactivity”.

“QVQLVESGGGLVQAGGSLRLSCAASGRTFYRYAMGWSRQAPGKERELVATISGSGGSTYYADSVKGRFTISRDNAKNTVYLQMNSLKPEDTAVYYCNAVWRFPIGRTAPRYDYWGQGTQVTVSS”: the “polyreactivity (PSR sort gate)” value is listed as “high polyreactivity”.

Take “QVQLVESGGGLVQAGGSLRLSCAASGIIFAGYAMGWYRQAPGKERELVADITSSGTSTYYADSVKGRFTISRDNAKNTVYLQMNSLKPEDTAVYYCAADDPRKNFTILDYLYDYWGQGTQVTVSS”: the “polyreactivity (PSR sort gate)” value is reported as “low polyreactivity”.

Regarding “QVQLVESGGGLVQAGGSLRLSCAASGSTFSAYTMGWYRQAPGKERELVAAISYRGGSTYYADSVKGRFTISRDNAKNTVYLQMNSRKPEDTAVYYCAAERKHYGLYDYWGQGTQVTVSS”, the “polyreactivity (PSR sort gate)” value is reported as “low polyreactivity”.

As for “QVQLVESVGGLVQAGGSLRLSCAASGSTFWYNAMGWYRLAPGKERELVAAISQSGGRTYYADSVKGRFTISRDNAKNTVYLQMNSLKPEDTAVYYCNAVSRDKSLYDYWGQGTQVTVSS”, the “polyreactivity (PSR sort gate)” value is reported as “high polyreactivity”.

Consider “QVQLVESGGGLVQAGGSLRLSCAASGFIFNYNAMGWYRQAPGKERELVAAIRTSSGSTYYADSVKGRFTISRDNAKNTVYLQMNSLKPEDTAVYYCGKTRYSTYSPIYYYWGQGTQVTVSS”, for which the “polyreactivity (PSR sort gate)” value is given as “high polyreactivity”.

For the sequence “QVQLVESGGGLVQAGGSLRLSCAASGRTFYRNAMGWSRQAPGKEREFVAVISVSGGSTYYADSVKGRFTISRDNAKNTVYLQMNSLKPEDTAVYYCAKRGPVRKTAYDYWGQGTQVTVSS”, the “polyreactivity (PSR sort gate)” value is given as “low polyreactivity”.

As to “QVQLVESGGGLVQAGGSLRLSCAASVITFNYNARGWYRQAPGKERELVARITWSGTRTYYADSVKGRFTMSRDNANNTVYLQMNSLKPEDTGVYYCNAGPYARYYWGQGTQVTVSS”, the “polyreactivity (PSR sort gate)” value is “high polyreactivity”.

On to “QVQLVESGGCLVQAGGSLRLSCASSGITFPGYAMGWYRQAPGKERELVAVIRKSGTSTYYADSVKGRFTISRDNAKNTVDLQMNSLKPEDTAVYYCAAGGPSTLDDYWGQGTQGTVSS”, for which the “polyreactivity (PSR sort gate)” value is recorded as “low polyreactivity”.

Consider “QVQLVESGGGLVQAGGSLRLSCAASGSTFFIWNAMGWYRQAPGKERELVAGITRGGSTNYADSVKGRFTISRDNAKNTVYLQMNSLKPEDTAVYYCAADGTVVYGYDYWGQGTQVTVSS”, for which the “polyreactivity (PSR sort gate)” value is given as “low polyreactivity”.

For the sequence “QVQLVESGGGLVQAGGSLRLSCAASGRTFAWYAMGWYRQAPGKERELVAAITTRGSGTYYADSVKGRFTISRDNAKNTVYIQMNSLKPEDTAVYYCAKDPITVTTVDERVYYWGQGTQVTVSS”, the “polyreactivity (PSR sort gate)” value is on record as “low polyreactivity”.

For “QVQLVESGGGLVQAGGSLRLSCAASGSIFPKYAMGWYRQAPGKERELVAAITSSGGRTYYADSVKGRFTISRDNAKNTVYLQMNSLKPEDTAVYYCAARSPRASGNSDYWGQGTQVTVSS”, the “polyreactivity (PSR sort gate)” value was “high polyreactivity”.

For the sequence “QVQLVESGGGLVQAGGSLRLSCAASGHIFFINAMGWYRQAPGKERELVAAIDWSGGSTYYADSVKGRFTISRDNAKNTDYLQMNSLKPADTAVYYCAAELLWDYILYYYWGQGTQVTVSS”, the “polyreactivity (PSR sort gate)” value is “high polyreactivity”.

Take “QVQLVESGGGLVQAGGSLRLSCAASGLTFKRYAMGWYRQAPGKERELVASITGNGGSTYYADSVKGRFTISRDNAKNTFYLQMNSLKPEDTAVYYCNVGYRGWSVNSWGQGTQVTVSS”: the “polyreactivity (PSR sort gate)” value is reported as “high polyreactivity”.

Take “QVQLVESGGGLVQAGGSLRLSCAASGSTCDYYAMGWYRQAPGKEREIVAAITTGGDTTNYADSVKGRFTISRDNAKNTVYLQMNSLKPEVTAVYYCARDTGYDLIVLPDDSWGQGTQVTVSS”: the “polyreactivity (PSR sort gate)” value is reported as “low polyreactivity”.

Consider “QDQLVESGGGLVQAGGSLRLSCAASGSTFGYYAMGWYRQAPGKERELVAAITSGASTNYADSVKGRFTISRDNAKNTVYLQMNSLKPEDTAVYYCAAGFQTRTPLNEFDYWGQGTQVTVSS”, for which the “polyreactivity (PSR sort gate)” value is listed as “low polyreactivity”.

On to “QVQLVESGGGLVQAGGSLRLSCAASGFTFVRYAMGWYRQAPGKERELVAGISRRGGSTYYADSVKGRFTISRDNAKNTVYLQMNSLKPEDTAVYYCAAKPIYYSRGYYWGQGTQVTVSS”, for which the “polyreactivity (PSR sort gate)” value is listed as “high polyreactivity”.

Take “QVQLVESGGGLVQAGGSLRLSCAASGRIFRYNAMGWYRQAPGKERELVAAISTSGTRTFYADSVKGRFTISRDNAMKTVYLQMNSVKPEDTAVYYCNKVAGPGKLGPYYYWGQGTQVTVSS”: the “polyreactivity (PSR sort gate)” value was “high polyreactivity”.

As to “QVQLVESGGGLVQAGGSLRLSCADSGFIIFRYAMGWYRQAPGKERELVAAITDDGSTYADSVKGRFTISRDNAKNTVYLQMNSLKPEDTAVYYCNVQSKSSYWWFGYDYWGQRTQVTVSS”, the “polyreactivity (PSR sort gate)” value is recorded as “low polyreactivity”.

For “QVQLVESGGGLVQAGGSLRLSCAASGSIFASNAMGWYRQAPGKERELVAAISTSGGSTYYADSVKGRFTISRDNAKNTVYLQMNSLKPEDTAVYYCAKLLARGFRIWQDYDYWGQGTQVTVSS”, the “polyreactivity (PSR sort gate)” value is given as “low polyreactivity”.

On to “QVKLVESGGGLVQAGGSLRLSFAASAGTFNSYAKGWYRQEPGKERELVATISYSGGSTYYADSVKGRFTISRDNAKYTVYLQMNSLKPEDTAVYYCAKVRYYPYSPGGLDYWGQGTQVTVSS”, for which the “polyreactivity (PSR sort gate)” value is “low polyreactivity”.

For the sequence “QVQLVESGGGLVQAGGSLRLSCAASGFTFVSYAMGWYRQAPGKERELVASITWTGGSTYYADSVKGRFTISRDNAKNTVYLQMNSLKPEDTAVYYGAAQQFYSGILGRYYWGQGTQVTVSS”, the “polyreactivity (PSR sort gate)” value is given as “low polyreactivity”.

For the sequence “QVQLVESGGGLVQAGGSLRLSCAASGYIFVWYDMGWYRHAPGKERELVAAITWSGGSTYADSVKGRFTISRDNAKNTVYLQMNSLIPEDTAVDYCNADNNLDVYVDYGFNYWGQGTQVTVSS”, the “polyreactivity (PSR sort gate)” value is “low polyreactivity”.

As for “QVQLVESGGGLVQAGGSLRLSCAASGSIFYYYAMGWYRQAPGKERELVADISRSGTSTYYADSVKGRFTISRDNAKNTVYLQMNSLKPEDTAVYYCNVLRVKSITYLMDYWGQGTQVTVSS”, the “polyreactivity (PSR sort gate)” value was “high polyreactivity”.

Take “QVQLVESGGGLVQAGGSLRLSCAASGRIFTYNTMGWYRQSPGKEREFVASITYSGSSTYYADSVKGRFTISRDNAKNTVYLQMNSLKPEDTAVYYCATRYGYSDGDYWGHGTQVTVSS”: the “polyreactivity (PSR sort gate)” value was “low polyreactivity”.

Turning to “QVQLVESGGGLVQAGGSLRLSCAASGSIFAYYAMGWYRQAPGKERELVAAISRRGATTYYSDSVKGRFTISRDNAKNTVYLQMNSLKPEDTAVYYCAARTPYWTSYLRYWGQGTQVTVSS”, the “polyreactivity (PSR sort gate)” value was “high polyreactivity”.
